One block for each substance: values may come before it.
Experiments:
Assay in all cases: affinity purification with mass spectrometry; GFP pull-down (µMACS/MultiMACS GFP Isolation Kit beads) from thylakoid membranes of GFP-labelled Syn7942 strains solubilised with 1% digitonin; label-free LC-MS/MS, abundances normalised to GFP, WT strain as control, triplicates
[1] = molecular target: PsaE of Photosystem I labelled with enhanced GFP (PSI–GFP) (Synechococcus elongatus PCC 7942) (UniProt Q31NL7)
[2] = molecular target: PsbB (CP47) of Photosystem II labelled with enhanced GFP (PSII–GFP) (Synechococcus elongatus PCC 7942) (UniProt P31094)
[3] = molecular target: PetA of Cytochrome b6f labelled with enhanced GFP (Cyt b6f–GFP) (Synechococcus elongatus PCC 7942) (UniProt Q31NV8)
Chain of UniProt Q31NV8 (Q31NV8 31-324): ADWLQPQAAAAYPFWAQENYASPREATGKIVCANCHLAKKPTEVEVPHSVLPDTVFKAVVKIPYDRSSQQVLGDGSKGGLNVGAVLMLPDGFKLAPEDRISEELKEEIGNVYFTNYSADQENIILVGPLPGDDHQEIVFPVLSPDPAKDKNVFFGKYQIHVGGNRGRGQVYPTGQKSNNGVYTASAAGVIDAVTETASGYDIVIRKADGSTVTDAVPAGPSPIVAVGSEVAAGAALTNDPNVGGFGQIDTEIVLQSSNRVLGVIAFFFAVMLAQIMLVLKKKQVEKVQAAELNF

Chain of UniProt Q31NL7 (Q31NL7 whole entry): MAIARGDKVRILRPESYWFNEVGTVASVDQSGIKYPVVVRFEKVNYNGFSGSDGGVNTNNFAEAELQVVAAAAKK
Chain of UniProt P31094 (P31094 whole entry): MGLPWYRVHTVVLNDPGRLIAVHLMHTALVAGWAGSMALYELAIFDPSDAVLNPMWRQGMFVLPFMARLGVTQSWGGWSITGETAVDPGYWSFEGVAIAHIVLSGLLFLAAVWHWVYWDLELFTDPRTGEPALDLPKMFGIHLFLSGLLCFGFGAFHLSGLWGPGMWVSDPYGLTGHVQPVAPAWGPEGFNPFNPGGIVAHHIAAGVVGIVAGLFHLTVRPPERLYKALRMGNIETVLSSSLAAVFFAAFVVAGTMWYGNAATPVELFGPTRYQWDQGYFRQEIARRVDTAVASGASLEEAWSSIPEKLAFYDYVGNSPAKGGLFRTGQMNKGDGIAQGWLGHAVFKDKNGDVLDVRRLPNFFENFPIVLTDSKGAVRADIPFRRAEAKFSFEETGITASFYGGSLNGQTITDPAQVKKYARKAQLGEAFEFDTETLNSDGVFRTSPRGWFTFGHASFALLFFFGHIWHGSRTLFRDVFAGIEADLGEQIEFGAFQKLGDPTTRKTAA

- percent of PSI associated with Cyt b6f [1]: 0.3%
- percent of PSII associated with Cyt b6f [2]: 1.98%
Substance: Cytochrome b6f (Cyt b6f) (from UniProt Q31KG3 1-37) (complex)

- percent of Cyt b6f associated with PSI [3]: 4.1%
- percent of PSII associated with PSI [2]: 9.9%
Substance: Photosystem I (PSI) (from UniProt P0A421 1-139; P0A402 24-164; P0A426 5-83) (complex)

- percent of Cyt b6f associated with PSII [3]: 2%
- percent of PSI associated with PSII [1]: 1.72%
Substance: Photosystem II (PSII) (from UniProt P31094 1-508; Q31M07 29-136; Q31LM9 31-167; Q31LS7 1-40) (complex)

— publication PMC8278045
